Measured values taken from US20050287608A1 (UNIVERSITY OF MEDICINE AND DENTISTRY, published 2005).
Substitutions are numbered along the chain they refer to.

B1: Flag-Rad23 (yeast Rad23 with an amino-terminal Flag epitope) (other, yeast (Saccharomyces cerevisiae), UniProt P32628 1-398, looked up, not shown: small tags and cut ends)
chain: MVSLTFKNFKKEKVPLDLEPSNTILETKTKLAQSISCEESQIKLIYSGKVLQDSKTVSECGLKDGDQVVFMVSQKKSTKTKVTEPPIAPESATTPGRENSTEASPSTDASAAPAATAPEGSQPQEEQTATTERTESASTPGFVVGTERNETIERIMEMGYQREEVERALRAAFNNPDRAVEYLLMGIPENLRQPEPQQQTAAAAEQPSTAATTAEQPAEDDLFAQAAQGGNASSGALGTTGGATDAAQGGPPGSIGLTVEDLLSLRQVVSGNPEALAPLLENISARYPQLREHIMANPEVFVSMLLEAVGDNMQDVMEGADDMVEGEDIEVTGEAAAAGLGQGEGEGSFQVDYTPEDDQAISRLCELGFERDLVIQVYFACDKNEEAAANILFSDHAD
B2: Flag-rad23^uba1uba2 (yeast Rad23 with mutations in both UBA domains, amino-terminal Flag epitope) (other, yeast (Saccharomyces cerevisiae), UniProt P32628 1-398, looked up, not shown: small tags and cut ends)
chain: B1 chain with L183A, L392A

Target: Ub-Pro-βgal (proteolytic test substrate, ubiquitinated in yeast cells) (UniProt P00722 1-1024 = β-galactosidase, ubiquitinated in the cells (multi-Ub chains; sites not stated))
Sequence (P00722 whole entry): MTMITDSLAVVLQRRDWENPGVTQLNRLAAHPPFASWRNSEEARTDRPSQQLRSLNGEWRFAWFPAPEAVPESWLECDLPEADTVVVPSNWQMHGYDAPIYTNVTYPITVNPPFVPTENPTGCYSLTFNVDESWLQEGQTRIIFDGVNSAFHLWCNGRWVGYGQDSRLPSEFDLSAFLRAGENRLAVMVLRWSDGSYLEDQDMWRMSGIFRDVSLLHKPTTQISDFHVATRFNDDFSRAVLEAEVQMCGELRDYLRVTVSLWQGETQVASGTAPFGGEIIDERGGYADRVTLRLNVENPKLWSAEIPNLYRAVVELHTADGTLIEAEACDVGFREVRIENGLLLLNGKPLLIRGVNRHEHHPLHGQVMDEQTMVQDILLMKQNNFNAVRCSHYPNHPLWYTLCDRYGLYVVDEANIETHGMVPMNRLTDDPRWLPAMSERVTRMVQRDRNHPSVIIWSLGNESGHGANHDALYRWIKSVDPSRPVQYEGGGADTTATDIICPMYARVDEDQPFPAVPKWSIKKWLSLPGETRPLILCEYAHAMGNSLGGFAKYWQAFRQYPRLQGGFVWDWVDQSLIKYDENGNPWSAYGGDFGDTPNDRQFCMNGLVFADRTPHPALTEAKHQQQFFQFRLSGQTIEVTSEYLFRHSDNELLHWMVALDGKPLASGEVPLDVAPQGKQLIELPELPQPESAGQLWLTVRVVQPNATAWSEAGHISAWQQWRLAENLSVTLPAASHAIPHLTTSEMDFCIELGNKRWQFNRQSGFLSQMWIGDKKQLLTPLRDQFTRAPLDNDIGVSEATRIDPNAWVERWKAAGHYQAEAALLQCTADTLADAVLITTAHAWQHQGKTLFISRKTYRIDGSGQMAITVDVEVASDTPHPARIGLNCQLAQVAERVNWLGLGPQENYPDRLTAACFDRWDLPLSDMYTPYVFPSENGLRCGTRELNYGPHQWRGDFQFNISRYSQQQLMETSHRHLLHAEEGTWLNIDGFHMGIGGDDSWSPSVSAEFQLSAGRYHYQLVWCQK
Experiment: cell-based or functional assay

Binder | t1/2 of Ub-Pro-βgal by pulse-chase on overexpression of Flag-Rad23 in yeast | t1/2 of Ub-Pro-βgal by pulse-chase on expression of Flag-rad23^uba1uba2 in yeast
B1 | > 100 min | 
B2 |  | ~10 min
